From paper doi:10.1101/2020.07.10.197400 (bioRxiv, 2020)

B1: GCN4-tetramerized β1-integrin tail (domain or fragment)
chain: MKQIEDKLEEILSKLYHIENELARIKKLLGERIIHDRREFAKFEKEKMNAKWDTGENPIYKSAVTTVVNPKYEGK

How the values were obtained:
[1] = target: Trx-kindlin2_F2 (residues 260 – 572) without PH domain (mouse); test: SEC-MALS
[2] = target: the molecule itself; test: SEC-MALS

Molecule | stoichiometry N [1] | stoichiometry N [2]
Trx-kindlin2_F2 (residues 260 – 572) without PH domain (domain or fragment) | 2 | 
B1 |  | 4
